Entries after “also recorded” stand apart in the source; their conditions may differ.
Assay: Iron, blood and bone parameters of wild type mice treated systemically with Tfr2-ECD
Format: in vivo
Procedure: For systemic Tfr2-ECD treatment, WT mice were treated every other day with Tfr2-ECD intraperitoneally for two weeks. Mice received 250 μg Tfr2-ECD (10 mg/kg BW) per injection for the first 10 days after BMP-2/matrigel injection into the muscle and 125 μg per injection (5 mg/kg BW) for the remaining time. This experiment was performed once with 8-10 mice per group. Drop-weight HO: This experiment was performed according to Liu et al. with minor modifications^65. Female 10-12-week-old WT mice were anesthetized and placed on a ridge of a plastic container over which the right leg was bent so the femur was lying horizontally. Mice received an injection of 1 μg BMP-2 mixed in 50 μl matrigel. Afterwards, a stainless-steel ball of 16 g (16 mm diameter) was dropped from a distance of 80 cm height onto the quadriceps muscle. Mice either received a single dose of 1 μg Tfr2-ECD, which was co-injected with the BMP-2/matrigel mixture, or palovarotene (Hycultec), which was administered daily by oral gavage. Palovarotene was dissolved in DMSO and diluted 1:4 with corn oil. Mice received palovarotene at a dose of 100 μg/mouse for the first five days and 50 μg/mouse for the remainder of the experiment (days 621). One group of mice received ibuprofen via the drinking water at a dose of […] which was changed every other day^66. Mice received methamizole (200 mg/kg) to reduce pain for the entire duration of the experiment. This experiment was performed twice with 6 mice per group.
Bone microarchitecture was analyzed using the vivaCT40 (Scanco Medical, Switzerland). The femur and the fourth lumbar vertebra were imaged at a resolution of 10.5 μm with X-ray energy of 70 kVp, […], and an integration time of 200 ms. The trabecular bone in the femur was assessed in the metaphysis 20 slices below the growth plate using 150 slices. In the vertebral bone, 150 slices were measured between both growth plates. The cortical bone was determined in the femoral midshaft (150 slices). Pre-defined scripts from Scanco were used for the evaluation.
The iron concentration in the liver was determined using 20 mg of dried liver tissue as previously published^8. The iron concentration in the bone was determined using atomic absorption spectroscopy (PerkinElmer Analyst 800) of dried bone tissue (bone marrow-flushed femur and tibia) as previously published^69.
The bone turnover markers C-terminal telopeptide (CTX) and pro-collagen type I N-terminal peptide (P1NP) were measured in the serum using ELISAs (IDS, Germany). Serum dickkopf-1 and BMP-2 were measured using ELISAs from R&D Systems (Germany). Mouse sclerostin was measured with an ELISA from Alpco (USA). Serum ferritin and iron were measured using routine methods for clinical analyses on a Roche Modular PPE analyzer. The transferrin saturation was determined using a total iron binding capacity kit from Randox.

[1] = wild type mice, systemic Tfr2-ECD, n = 8, means ± SD

B1: Tfr2-ECD: Recombinant full-length extracellular domain (aa 103-798) of murine Tfr2, His-tagged, expressed in Sf9 insect cells (protein, listed as Mus musculus)
chain: RGSCQACGDSVLVVDEDVNPEDSGRTTLYWSDLQAMFLRFLGEGRMEDTIRLTSLRERVAGSARMATLVQDILDKLSRQKLDHVWTDTHYVGLQFPDPAHANTLHWVDADGSVQEQLPLEDPEVYCPYSATGNATGKLVYAHYGRSEDLQDLKAKGVELAGSLLLVRVGITSFAQKVAVAQDFGAQGVLIYPDPSDFSQDPHKPGLSSHQAVYGHVHLGTGDPYTPGFPSFNQTQFPPVESSGLPSIPAQPISADIADQLLRKLTGPVAPQEWKGHLSGSPYRLGPGPDLRLVVNNHRVSTPISNIFACIEGFAEPDHYVVIGAQRDAWGPGAAKSAVGTAILLELVRTFSSMVSNGFRPRRSLLFISWDGGDFGSVGATEWLEGYLSVLHLKAVVYVSLDNSVLGDGKFHAKTSPLLVSLIENILKQVDSPNHSGQTLYEQVALTHPSWDAEVIQPLPMDSSAYSFTAFAGVPAVEFSFMEDDRVYPFLHTKEDTYENLHKMLRGRLPAVVQAVAQLAGQLLIRLSHDHLLPLDFGRYGDVVLRHIGNLNEFSGDLKERGLTLQWVYSARGDYIRAAEKLRKEIYSSERNDERLMRMYNVRIMRVEFYFLSQYVSPADSPFRHIFLGQGDHTLGALVDHLRMLRADGSGAASSRLTAGLGFQESRFRRQLALLTWTLQGAANALSGDVWNIDNNF
modifications: His tag
notes: Recombinant full-length extracellular domain (aa 103-798) of murine Tfr2, His-tagged, expressed in Sf9 insect cells
Q: With B1 as the molecule, how does the “Adverse effects on blood counts, iron parameters, bone homeostasis or gross morphology of internal organs” value (systemic Tfr2-ECD treatment, 2 week treatment period) read?
A: No adverse effects; also recorded: did not show adverse effects

Q: And the “Differential counts, Lymphocytes” value [1]?
A: 90.1 ± 4.35%

Q: And the “Differential counts, Monocytes” value [1]?
A: 2.17 ± 2.55%

Q: And the “Differential counts, Neutrophils” value [1]?
A: 7.33 ± 2.82%

Q: And the HCT [1]?
A: 0.51 ± 0.02

Q: What about the Heart iron [1] of the same molecule?
A: 207.8 ± 54.1 μg/g dry tissue

Q: And the Hemoglobin [1]?
A: 9.77 ± 0.41 mmol/L

Q: What about the Kidney iron [1] of the same molecule?
A: 112.6 ± 15.0 μg/g dry tissue

Q: What about the Liver iron [1] of the same molecule?
A: 578.3 ± 273^ μg/g dry tissue

Q: What about the Plasma iron [1] of the same molecule?
A: 30.1 ± 3.3 µmol/L

Q: What about the Platelets [1] of the same molecule?
A: 385 ± 69.5 10^9/L

Q: What about the RBC [1] of the same molecule?
A: 10.1 ± 0.40 10^12/L

Q: What about the Reticulocytes [1] of the same molecule?
A: 197 ± 24.2 10^9/L

Q: What about the Spleen iron [1] of the same molecule?
A: 620.2 ± 113^ μg/g dry tissue

Q: And the WBC [1]?
A: 11.0 ± 3.09 10^9/L

Q: And the “μCT BV/TV Femur” value [1]?
A: 10.7 ± 3.09%

Q: What about the “μCT BV/TV Vertebrae” value [1] of the same molecule?
A: 24.1 ± 3.36%
